Measured values taken from article PMC8899846.

B1: wt mouse RtcB-Flag (pCMV3-mRTCB-Flag) [mouse] / PTP1B-C215S (trapping mutant; pcDNA3.1/Zeo-PTP1B [not stated] (parent)
chain 1: MSRNYNDELQFLDKINKNCWRIKKGFVPNMQVEGVFYVNDALEKLMFEELRNACRGGGVGGFLPAMKQIGNVAALPGIVHRSIGLPDVHSGYGFAIGNMAAFDMNDPEAVVSPGGVGFDINCGVRLLRTNLDESDVQPVKEQLAQAMFDHIPVGVGSKGVIPMNAKDLEEALEMGVDWSLREGYAWAEDKEHCEEYGRMLQADPNKVSPRAKKRGLPQLGTLGAGNHYAEIQVVDEIFNEYAAKKMGIDHKGQVCVMIHSGSRGLGHQVATDALVAMEKAMKRDKIIVNDRQLACARIASPEGQDYLKGMAAAGNYAWVNRSSMTFLTRQAFAKVFNTTPDDLDLHVIYDVSHNIAKVEQHVVDGKERTLLVHRKGSTRAFPPHHPLIAVDYQLTGQPVLIGGTMGTCSYVLTGTEQGMTETFGTTCHGAGRALSRAKSRRNLDFQDVLDKLADMGIAIRVASPKLVMEEAPESYKNVTDVVNTCHDAGISKKAIKLRPIAVIKG
chain 2: MEMEKEFEQIDKSGSWAAIYQDIRHEASDFPCRVAKLPKNKNRNRYRDVSPFDHSRIKLHQEDNDYINASLIKMEEAQRSYILTQGPLPNTCGHFWEMVWEQKSRGVVMLNRVMEKGSLKCAQYWPQKEEKEMIFEDTNLKLTLISEDIKSYYTVRQLELENLTTQETREILHFHYTTWPDFGVPESPASFLNFLFKVRESGSLSPEHGPVVVHSSAGIGRSGTFCLADTCLLLMDKRKDPSSVDIKKVLLEMRKFRMGLIQTADQLRFSYLAVIEGAKFIMGDSSVQDQWKELSHEDLEPPPEHIPPPPRPPKRILEPHNGKCREFFPNHQWVKEETQEDKDCPIKEEKGSPLNAAPYGIESMSQDTEVRSRVVGGSLRGAQAASPAKGEPSLPEKDEDHALSYWKPFLVNMCVATVLTAGAYLCYRFLFNSNT

Variants of: B1
Experiment: co-immunoprecipitation (IP: PTP1B, immunoblot RtcB), band quantification
Conditions: with PTP1B-C215S (trapping mutant; pcDNA3.1/Zeo-PTP1B C215S); HEK cells, 1 μg RtcB-Flag plasmid and 1 μg PTP1B C215S plasmid; n = 3; parent: 100; read off a plot
Variant chain 1 Y306F has a percent of parent of 100 % WT. For chain 1 Y306F Y316F, the percent of parent was 37 % WT. In the case of chain 1 Y306F Y316F Y475F, the percent of parent is reported as 38 % WT. For chain 1 Y316F, the percent of parent was 75 % WT. With chain 1 Y475F the percent of parent was 55 % WT.
